# Measured values taken from patent US20200247855A1, “THERAPY AND DIAGNOSTICS” (OXFORD UNIVERSITY INNOVATION LIMITED, priority 2017, published 2020).
# “Also recorded” adds a separate entry of the source.
# What was measured:
# [1] = target: T1, CCL8_HUMAN (Homo sapiens, UniProt P80075); test: Biolayer interferometry (BLI) binding; details: for CCL8 binding (bound or not): 300 nM or 600 nM CCL8; for Kd: read-out: Kd, CCL8_HUMAN
# T1 sequence (P80075 24-99): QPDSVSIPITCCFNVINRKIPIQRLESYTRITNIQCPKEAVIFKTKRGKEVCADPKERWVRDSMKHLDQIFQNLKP
# Method: (§1) Table 1. Tick CKBPs described in PCT/GB2017/050563 and [17]. Tick peptide sequences isolated in yeast surface display fluorescent-activated cell sorting (FACS) screens using a labelled chemokine. Identity with Evasin-1, 4 or 3 was calculated using BLAST. Abbreviations: IXORI—Ixodes ricinus, RHISA—Rhipicephalus sanguineus, AMBMA—Amblyomma maculatum, AMBPA—Amblyomma parvum, AMBTR—Amblyomma triste, AMBAM—Amblyomma americanum, AMBCA—Amblyomma cajennense, RHIPU—Rhipicephalus pulchellus. Table 2A-C. Binding characteristics of tick CKBPs previously disclosed (PCT/GB2017/050563 and [17]). All members of the human chemokine family[164] are listed in column 1. Binding to human chemokines was determined for 14 tick CKBPs using biolayer interferometry (BLI) with calculated Kd shown as Molar (Moles/Litre). Binding data for 17 other novel tick CKBPs was assayed using yeast surface display[17,166],with positive binding results shown as “YES”. For biolayer interferometry, His-tagged purified tick CKBP was bound to a Ni-NINTA sensor on an OctetRed® 384 system, and then binding to each chemokine listed (with the exception of CCL25, CCL26, CXCL16, CXCL17, CXCL4L1, XCL2) was assayed in a cross-binding screen at a chemokine concentration of 300 nM as described. For those chemokines showing binding to a tick CKBP in the cross-binding screen, binding assays were repeated using different doses of chemokine. Association, equilibrium and dissociation data were analysed using Octet software to create corresponding fitted curves, and used to calculate Kd. For yeast surface display, (YSD) background fluorescence was controlled for by using either an empty vector or by omitting the chemokine (i.e. using streptavidin-Alexa647 alone). An arbitrary threshold of >3 fold over background mean fluorescence intensity was chosen to describe confirmed re-tests. Where binding was detected data are indicated as “YES”. […] For yeast surface display data, empty cells represent chemokines that were not tested. Binding data published in relation to previously described tick CKBPs (Evasins-1, 4 and 3) is also shown for comparison in each of FIGS. 2A-C, with the relevant data obtained from publications: [20-22,32]. Table 3: Neutralisation of human chemokines by tick CKBPs previously disclosed (PCT/GB2017/050563 and [17]). Neutralising activity was determined using a quantitative THP1 cell migration assay in a 96-well Boyden chamber with chemokine in the bottom chamber as described. Cells migrating through to the bottom chamber at 4 hours were counted using flow cytometry in a 96 well plate format. IC50 for neutralisation was determined at the chemokine EC80 dose as determined using a range of tick CKBP concentrations. Data was analysed using GraphPad Prism to determine IC50, which is shown as Molar (Moles/Litre). Empty cells represent experiments not done. Table 4—Other previously described tick CKBPs. Tick CKBPs that were also described in PCT/GB2017/050563 and Singh et al. are indicated in “Notes”. Table 5.—Novel tick CKBPs of the invention. Table 6. […] The peptide sequence prefix indicates the identity, and suffix indicate the tick species as follows: AMBCA, Amblyomma cajennense and IXORI, Ixodes ricinus. […] Certain tick peptides e.g. P1074_IXORI were recovered from screens performed with more than one chemokine. Individual yeast clones recovered from the library were re-tested using a FACS (fluorescence activated cell sorting), experiment. The binding of the peptide to the chemokine was assayed by measuring the percent (%), of yeast cells expressing the given peptide that exceeded a background threshold set by measuring the fluorescence of the yeast library pool treated with streptavidin-[…] alone. When more than one independent yeast clone was isolated for a given peptide-chemokine combination, the mean percent shift was calculated and reported in column 3. […]
# [2] = target: T2, CCL3_HUMAN (Homo sapiens, UniProt P10147); test: Biolayer interferometry (BLI) binding
# T2 sequence (P10147 24-92): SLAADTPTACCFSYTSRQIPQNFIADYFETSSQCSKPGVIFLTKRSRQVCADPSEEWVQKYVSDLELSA
# Method: as §1
# [3] = target: CCL2_HUMAN (Homo sapiens, UniProt P13500); test: Biolayer interferometry (BLI) binding
# Sequence of CCL2_HUMAN (P13500 24-99): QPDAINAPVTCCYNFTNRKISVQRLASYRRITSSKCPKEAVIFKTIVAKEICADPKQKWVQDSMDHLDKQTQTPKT
# Method: as §1
# [4] = target: CCL3L1_HUMAN (Homo sapiens, UniProt P16619); test: Biolayer interferometry (BLI) binding
# Sequence of CCL3L1_HUMAN (P16619 24-93): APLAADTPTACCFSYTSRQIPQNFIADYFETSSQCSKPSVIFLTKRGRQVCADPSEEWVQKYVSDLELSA
# Method: as §1
# [5] = target: CCL7_HUMAN (Homo sapiens, UniProt P80098); test: Biolayer interferometry (BLI) binding
# Sequence of CCL7_HUMAN (P80098 24-99): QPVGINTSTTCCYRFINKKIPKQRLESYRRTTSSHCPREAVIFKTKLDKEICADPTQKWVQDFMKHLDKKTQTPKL
# Method: as §1
# [6] = target: T3, CCL4_HUMAN (Homo sapiens, UniProt P13236); test: Biolayer interferometry (BLI) binding
# T3 sequence (P13236 24-92): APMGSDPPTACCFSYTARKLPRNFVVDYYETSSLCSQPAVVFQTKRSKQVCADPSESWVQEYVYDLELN
# Method: as §1
# [7] = target: T4, CCL14_HUMAN (Homo sapiens, UniProt Q16627); test: Biolayer interferometry (BLI) binding
# T4 sequence (Q16627 20-93): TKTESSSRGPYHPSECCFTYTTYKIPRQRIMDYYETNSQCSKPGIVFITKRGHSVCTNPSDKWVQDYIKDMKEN
# Method: as §1
# [8] = target: CCL13_HUMAN (Homo sapiens, UniProt Q99616); test: Biolayer interferometry (BLI) binding
# Sequence of CCL13_HUMAN (Q99616 17-98): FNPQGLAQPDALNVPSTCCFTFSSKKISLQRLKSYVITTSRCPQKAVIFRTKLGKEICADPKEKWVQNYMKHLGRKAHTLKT
# Method: as §1
# [9] = target: CCL11_HUMAN (Homo sapiens, UniProt P51671); test: Biolayer interferometry (BLI) binding
# Sequence of CCL11_HUMAN (P51671 24-97): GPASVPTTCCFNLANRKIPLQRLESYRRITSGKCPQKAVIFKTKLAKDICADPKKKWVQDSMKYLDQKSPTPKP
# Method: as §1
# [10] = target: T5, CCL4L1_HUMAN (Homo sapiens, UniProt Q8NHW4); test: Biolayer interferometry (BLI) binding
# T5 sequence (Q8NHW4 24-92): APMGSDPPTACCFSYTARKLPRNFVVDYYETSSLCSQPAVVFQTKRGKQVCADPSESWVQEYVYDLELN
# Method: as §1
# [11] = test system: chemokines; details: list of chemokines bound, from the literature [18,20-22]; cited from earlier work
molecule,measurement,setting,value
"SEQ ID NO: 82: substituted hybrid with greater extent of P672_RHIPU sequence in Evasin-1 (protein, tick CKBP sequence) VCEVSEQEGVGEDNATEDEDYEDFFKPVTCYFANSTVGPLRPPNCTVVCTNNTAWWNDTKSDGGHCYSEYRPEKRTHSREIYNCTIGVCGNGDCIPKETYEVCYRRNWRDEKN",CCL8 binding (bound or not),[1],having a CCL8-binding function
"P983_AMBPA: tick CKBP; named P983_AMBCA in Table 1 (protein, Amblyomma cajennense) EDTGTEDDFDYGNTGCPFPVLGNYKSNMTKPVGCKNKCGSGYEVLNDTTPCYVIDQKVFNNMVPLRQYSKCPLGFCENGECKPNDQAEDCYKGREEQK",Kd,[2],3.5 nM
same,Kd,[3],14 nM
same,Kd,[4],2.1 nM
same,Kd,[1],7 nM
same,Kd,[5],32 nM
same,Kd,[6],8 nM
same,Kd,[7],81 nM
same,Kd,[8],17 nM
same,Kd,[9],21 nM
"P1183_AMBTR: tick CKBP, Amblyomma triste (protein, Amblyomma triste) EAPKDDFEYDGGCPFVVLDNGTHVKPAGCSHLCNGAPETLDNIECYNVTEEVAKRMTPGIPYACWLGWCSKGECKRDNRTEVCYRGSEEE",Kd,[3],12 nM
same,Kd,[1],1100 nM
same,Kd,[10],48 nM
same,Kd,[5],5.4 nM
same,Kd,[6],78 nM
same,Kd,[8],5.7 nM
same,Kd,[9],8.5 nM
"RPU-02: previously described tick CKBP, Rhipicephalus pulchellus (protein, listed as Rhipicephalus pulchellus) CEVQNTTLAEEDYDTGCGYNIVITKNKTLVVNCTMDCQPKMLMNESEPCLFNSSVPYDHMQPHHNYTCMEGICKNGTCVSPSNNITCWLPPPPVRYYPNETMVTSTIEPEA",Previously described chemokine binding,[11],"CCL11, CCL24,; also recorded: CCL26, CCL2,; also recorded: CCL8, CCL7"
"ACA-02: previously described tick CKBP, Amblyomma cajennense (protein, Amblyomma cajennense) GIEGSGNLATSHEMDDCLDDNSTCVIQTLNTTGEPRPVGCVLKCKNSTQHLANGTECLGIPELAGVRMQYNVSYTCAVGLCNAGVCERTGLWIGCWQNEPPPNSTDVTTTAPTTTTASTSSV",Previously described chemokine binding,[11],"CCL11, CCL24,; also recorded: CCL26"
"IHO-01: previously described tick CKBP, Ixodes holocyclus (protein, listed as Ixodes holocyclus) AFVSSSTEVEIGSTSEHNSNETDEYGYDYNADGLGCPVVGIGGLDNKTWHPNCTNECPNSTKLFLLENGTP",Previously described chemokine binding,[11],"CCL11, CCL24, and CCL26, CCL2, and CCL8"
"AAM-01: previously described tick CKBP, Amblyomma americanum (protein, listed as Amblyomma americanum) ESEGSVSTETEVISYEDDCQDDNSTCFIQTLNTTGEPRPVGCILECENSTQRLPNGTECLGLPGLAAVKMQRNVSYTCSVGLCNGEGVCDRTGLWIGCWTNTPPPNSTNVTTKPPTTTTASPGTG",Previously described chemokine binding,[11],"CCL11, CCL24,; also recorded: CCL26, CCL2,; also recorded: CCL8, CCL7"
Evasin-1 peptide encoded by EZ406190.1: Evasin-1 peptide variant K92E encoded by nucleotide sequence EZ406190.1 (protein) EDDEDYGDLGGCPFLVAENKTGYPTIVACKQDCNGTTETAPNGTRCFSIGDEGLRRMTANLPYDCPLGQCSNGDCIPKETYEVCYRRNWRDEKN,CCL8 binding (bound or not),[1],does not bind CCL8
"ATR-02: previously described tick CKBP, Amblyomma triste (protein, Amblyomma triste) GNEVSDPPLTDEDCEYYDPSEDNITCSIRSLNTTGRPIPVGCLATCENSTRRLHNGTECLGISDQVANRMQGNVTYTCPVGLCYRGVCQRNGLGIDCWHNTPPPNSTNVTTNASTTPLPTSSRDL",Previously described chemokine binding,[11],"CCL11, CCL24,; also recorded: CCL26, CCL2,; also recorded: CCL8, CCL7"
"EVA1(P67222-32): hybrid protein: P672 (E22-F32) region swapped into the corresponding segment of EVA1_RHISA (protein, EVA1 containing P672 E22-E32, hybrid protein: P672 (E22-F32) region swapped into the corresponding segment of EVA1_RHISA) EDDEDYEDFFKPVTCYFLVAENKTGYPTIVACKQDCNGTTETAPNGTRCFSIGDEGLRRMTANLPYDCPLGQCSNGDCIPKETYEVCYRRNWRDKKN",CCL8 binding (bound or not),[1],bound CCL8
"IRI-01: previously described tick CKBP, Ixodes ricinus (protein, listed as Ixodes ricinus) GPAPSAKENEKAPLCLPQESLINNRDPNGCNYQLLPYFTEDGMGGGFLAIDCSKSCPEGTHETVVDGNS",Previously described chemokine binding,[11],"CCL11, CCL24,; also recorded: CCL26, CCL2,; also recorded: CCL8, CCL7"
"AMA-01: previously described tick CKBP, Amblyomma maculatum (protein, listed as Amblyomma maculatum) ECEESDTSESTECSTEDYSNRIRDNETCFIGALNTTGHPVPVGCTLDCGNSTRYLPNGTECIDLTQQASDVMQSDVPYYCPIGLCANGICKRSGLELNCWHDMPPPVSTDTAIENPTTSISSSAKL",Previously described chemokine binding,[11],"CCL11, CCL24,; also recorded: CCL26, CCL2,; also recorded: CCL8, CCL7"
"SEQ ID NO: 83: substituted hybrid with greater extent of P672_RHIPU sequence in Evasin-1 (protein, tick CKBP sequence) VCEVSEQEGVGEDNATEDEDYEDFFKPVTCYFANSTVGPLRPPNCTVVCTNNTAWWNDTKSDGGHCFSIGDEGLRRMTANLPYDCPLGQCSNGDCIPKETYEVCYRRNWRDEKN",CCL8 binding (bound or not),[1],having a CCL8-binding function
